Experimental data: patent US20210403565A1 (BIOATLA, published 2021)
Numbering of substitutions follows the chain as printed.

T1: recombinant cynomolgus CTLA4 extracellular domain (cynomolgus, UniProt G7PL88 36-161)
T1 construct: extracellular domain; also called cynoCTLA-4; cynoCTLA4
T1 sequence: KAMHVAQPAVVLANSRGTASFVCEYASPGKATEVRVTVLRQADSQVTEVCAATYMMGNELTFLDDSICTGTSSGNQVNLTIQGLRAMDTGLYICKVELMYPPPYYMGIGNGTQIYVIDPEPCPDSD

T2: cynomolgus CTLA4 expressed on the cell surface of CHO cells (cynomolgus, UniProt G7PL88 36-223)
T2 construct: whole, on cells; also called CHO-cynoCTLA4
T2 sequence: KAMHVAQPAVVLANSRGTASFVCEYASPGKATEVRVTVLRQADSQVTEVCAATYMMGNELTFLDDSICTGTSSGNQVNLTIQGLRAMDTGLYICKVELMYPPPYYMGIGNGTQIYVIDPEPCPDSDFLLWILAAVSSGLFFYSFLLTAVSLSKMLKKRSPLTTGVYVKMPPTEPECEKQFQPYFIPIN

T3: human CTLA4 expressed on the cell surface of CHO cells (human, UniProt P16410 36-223)
T3 construct: whole, on cells; also called CHO-huCTLA4; huCTLA4
T3 sequence (looked up): T2 sequence with N14S, T18I, M106L

B1: Ipilimumab (antibody, V domains shown)
VH: QVQLVESGGGVVQPGRSLRLSCAASGFTFSSYTMHWVRQAPGKGLEWVTFISYDGNNKYYADSVKGRFTISRDNSKNTLYLQMNSLRAEDTAIYYCARTGWLGPFDYWGQGTLVTVSS
VL: not shown
B2: hB7-2 (hCD86) (ligand, human, UniProt P42081 24-247, looked up)
chain: APLKIQAYFNETADLPCQFANSQNQSLSELVVFWQDQENLVLNEVYLGKEKFDSVHSKYMGRTSFDSDSWTLRLHNLQIKDKGLYQCIIHHKKPTGMIRIHQMNSELSVLANFSQPEIVPISNITENVYINLTCSSIHGYPEPKKMSVLLRTKNSTIEYDGVMQKSQDNVTELYDVSISLSVSFPDVTSNMTIFCILETDKTRLLSSPFSIELEDPQPPPDHIP

Key:
[1] = target: T1, recombinant cynomolgus CTLA4 …; assay: SPR, cynomolgus CTLA4 ECD immobilised, pH 6.0, equilibrium fit
[2] = target: T1, recombinant cynomolgus CTLA4 …; assay: ELISA, immobilised cynoCTLA-4, pH 6.0, Jun. 27, 2017
[3] = target: T1, recombinant cynomolgus CTLA4 …; assay: ELISA, immobilised cynoCTLA-4, pH 6.0, mean +/- SD
[4] = target: T1, recombinant cynomolgus CTLA4 …; assay: ELISA, immobilised cynoCTLA-4, pH 6.0, Jun. 19, 2017
[5] = target: T2, cynomolgus CTLA4 expressed on the cell …; assay: FACS on CHO-cynoCTLA4 cells, pH 6.0, mean
Experimental: The amount of antibodies bound on the cells was quantified using anti-human IgG antibody conjugated to fluorophores. EC₅₀ values at pH 6.0 and 7.4 for binding to cells were calculated using the nonlinear fit (variable slope, four parameters) model built into GraphPad Prism software (version 7.03). The expression levels of human CTLA4 or cynomolgus CTLA4 on the surface of the CHO cells were determined using a BD QuantiBRITE™ PE kit.

[6] = target: T2, cynomolgus CTLA4 expressed on the cell …; assay: FACS, CHO cells expressing cynomolgus CTLA4 (CHO-cynoCTLA-4), pH 7.4, MFI; no unit in the table, unit from the axis Log Antibodies [ng/ml]
[7] = target: T3, human CTLA4 expressed on the cell …; assay: FACS competition on CHO-huCTLA4: hB7-2 titrated against a fixed concentration of BA-087-05-19, bound antibody detected, % competition; pH 6.0 per the text; no plateau reached (about 25 to 45 % at log 3.95); unit from the axis hB7-2 log[ng/mL]
[8] = target: T3, human CTLA4 expressed on the cell …; assay: FACS competition on CHO-huCTLA4: hB7-2 titrated against a fixed concentration of Ipilimumab, bound antibody detected, % competition; pH 6.0 per the text; no plateau reached (about 25 to 45 % at log 3.95); unit from the axis hB7-2 log[ng/mL]
[9] = target: T3, human CTLA4 expressed on the cell …; assay: FACS competition on CHO-huCTLA4: hB7-2 titrated against a fixed concentration of BA-087-08-32, bound antibody detected, % competition; pH 6.0 per the text; no plateau reached (about 25 to 45 % at log 3.95); unit from the axis hB7-2 log[ng/mL]
[10] = target: T3, human CTLA4 expressed on the cell …; assay: FACS competition on CHO-huCTLA4: hB7-2 titrated against a fixed concentration of Ipi Analog, bound antibody detected, % competition; pH 6.0 per the text; no plateau reached (about 25 to 45 % at log 3.95), fit marked ~; unit from the axis hB7-2 log[ng/mL]

Binder	Kd [1]	EC50 [2]	EC50 [3]	EC50 [4]	EC50 [5]	EC50 [6]	EC50 [7]	EC50 [8]	EC50 [9]	EC50 [10]
B1	6.58 nM	0.021 µg/mL	0.0153 µg/mL	0.00966 µg/mL	0.338 µg/mL	0.177 µg/mL				
B2							3.73 µg/mL	7.19 µg/mL	3.87 µg/mL	~2.45 µg/mL
